Data reported in patent publication US11905559B2, “Materials and methods for controlling gene expression” (priority 2016, dated 2024).
Positions count from the first letter of the chain named.

Tests used:
[1] = target: guanine-riboswitch; settings: previous in-line measurements; cited from earlier work
[2] = Constant-force / force-jump assay of the full-length riboswitch RNA; type: physicochemical
Description: Moreover, as the successive traces were not reproducible, the anti-terminator conformation could not be assigned to the transitions. […] The function of the random structures can be presumed to destabilize the terminator hairpin and turn “ON” the gene expression. The un-bound trajectories are referred to as the “non-terminator” conformations to distinguish from the traditionally defined anti-terminator conformation. […] To assess the mode of allosteric modulation (tilt-equilibrium or induced-fit), the mechanical unfolding assay was performed in the presence of guanine salts ranging from 1 nM to 1 μM. […] Had this been the case, a gradual shift would have been observed in the equilibrium toward the terminator conformation according to the tilt-equilibrium model. […] Thus, at 16 pN, the terminator fluctuates between the open and the closed states, observed as Y*↔Y and Z*↔Z in FIG. 23A. […] The Keq˜0.1
[formula] implied that the hairpin preferred the open state (90%) at 16 pN (the Keq˜1 at 15.6 pN). The expression platform dynamics and the unfolding scheme are shown in FIGS. 27A-B. That the bi-stabilities are due to the terminator was further confirmed by subjecting the FL-mutant to similar cycles (FIG. 23B). […] The findings thus underscore that only the guanine induces a terminator conformation to the expression platform. Transition Y→Z* (ΔX=14±2.5 nm) indicated a complete unfolding of the aptamer (FIGS. 27A-B).
In a constant-force (CF) experiment, the RNA is held at a preset force through feedback control. The preset force typically fluctuated around the mean with a standard deviation ±0.15 pN. In this mode, data is recorded from 4-40 kHz to capture the fast intermediates. The plots are shown as extension vs. time (as in FIG. 6A). In force-jump (FJ) assay, the force is suddenly jumped from one force to another, and then held constant thereafter, as shown in FIGS. 23A-B.

[3] = Force-ramp mechanical assay of the full-length xpt leader mRNA; type: physicochemical
Description: A dual-beam high-resolution optical tweezers was built that can detect short-lived fluctuations at sub-milliseconds (<0.25 msec) time scale at a single base pair level, with high precision and accuracy. This instrument was used to investigate the conformational dynamics of the full-length (FL) guanine-responsive riboswitch (guanine-riboswitch) and its 69-nt aptamer domain present in the 5′-UTR of an xpt-pbuX operon in B. subtilis. It has been shown that the xpt leader mRNA selectively downregulates the gene expression by transcription termination in the presence of guanine (FIG. 17B). The FL xpt mRNA was subjected to mechanical assays in order to identify the terminator and an anti-terminator conformation. […] The unfolding trajectory (red curve) indicated the melting of the 35-nt terminator hairpin at 16.1±0.5 pN (n=1200 traces) with a transition distance, ΔXt˜15±3 nm. A second transition at 17.9±0.9 pN with a distance, ΔXa˜25-30 nm indicated the unfolding of the 69-nt aptamer. […] The terminator mutant (FL-mutant, FIGS. 17D-E) abolished the 16.0 pN transition, thus supporting the structural assignment.
The forces on the bead were recorded at an acquisition rate of 44 kHz. Data was collected from the stereo phone jacks on the ADC boards of the Tweezers instrument and sent to the host computer audio input for analysis by SignalScope program (Faber Acoustical, LLC). As shown in the plot, power spectral density is fitted with the Lorentzian fit to yield the corner frequency (fc) that was used to calculate the trap stiffness. This setup was used to perform three different mechanical reactions: force-ramp (FR), constant-force (CF) and force-jump (FJ) under a controlled force. In the force-ramp (FR) experiment, the trap was moved at 200 nm/s, which corresponded to a loading rate 7-8 pN/s. […] The force-ramp data is plotted as force vs. extension curves (FEC).

## Nc1nc(N)c2[nH]cnc2n1 [DAP, 2,6-diaminopurine]
[1]
  Kd: ~10 µM

B1: FL xpt mRNA: full-length wild-type guanine riboswitch sequence comprising the aptamer domain and expression platform (SEQ ID NO: 12) (nucleic acid)
chain: AAUAUAAUAGGAACACUCAUAUAAUCGCGUGGAUAUGGCACGCAAGUUUCUACCGGGCACCGUAAAUGUCCGACUAUGGGUGAGCAAUGGAACCGCACGUGUACGGUUUUUUGUGAUAUCAGCAUUGCUUGCUCUUUAUUUGAGCGGGCAAUGCUUUUUUUAUUCUCAUAACGGAGGUAGACAGGAUG
modifications: aptamer_domain (14)..(82); expression_platform (83)..(188)
[2]; 15.6 pN, +G
  Keq of terminator hairpin: ~1
[2]; 16 pN, +G
  Keq of terminator hairpin: ~0.1
  Terminator hairpin in the open state: 90%
  ΔX of transition Y→Z* (complete unfolding of the aptamer): 14±2.5 nm
[2]; 16 pN, +G (FIG. 23A: 200 nM guanine)
  Change in extension of terminator open/closed bi-stabilities (Y*↔Y, Z*↔Z): 15±1.7 nm
[3]; 1 μM guanine
  Force of second transition (unfolding of the 69-nt aptamer): 17.9±0.9 pN
  Transition distance ΔXa (aptamer): 25-30 nm
  Transition distance ΔXt (terminator): ~15±3 nm
[3]; 1 μM guanine, n=1200 traces
  Melting force of the 35-nt terminator hairpin: 16.1±0.5 pN

B2: FL-mutant: full-length mutant guanine riboswitch sequence comprising the aptamer domain and expression platform (SEQ ID NO: 13) (nucleic acid)
chain: B1 chain with G148C, C149G, G153C, C154G
modifications: aptamer_domain (14)..(82); expression_platform (83)..(188)
[2]; 75 traces, 200 nM guanine
  Terminator hopping (in words): without exhibiting a terminator hopping
[3]; force-extension curve
  16.0 pN terminator transition (in words): abolished
